Measured values: patent publication US20240123070A1 (SHANGHAI GENBASE BIOTECHNOLOGY, published 2024)
Residue numbers refer to the chain shown, from its start. Values belong to the binder of their own block, whether it stands above or below them.

Biological target: KRAS G13D antigen (G13D-RT6, SEQ ID NO: 20) loaded on Lovo-DPA0301:DPB0501 cells (human)
Assay: cell-based or functional assay

B1: B8.2.4 TCR mutant β95Q-A (TCR, V domains shown)
V domain 1: AQKITQTQPGMFVQEKEAVTLDCTYDTSDPSYGLFWYKQPSSGEMIFLIYQGSYDQQNATEGRYSLNFQKARKSANLVISASQLGDSAMYFCAMRERTGTASKLTFGTGTRLQVTL
V domain 2: DVKVTQSSRYLVKRTGEKVFLECVQDMDHENMFWYRQDPGLGLRLIYFSYDVKMKEKGDIPEGYSVSREKKERFSLILESASTNQTSMYLCASSATVPPQHFGDGTRLSILE
TCR Mut RLU/WT RLU: 0.86 ratio

B5: B8.2.4 TCR mutant β95Q-S (TCR, V domains shown)
V domain 1: B1 V domain 1
V domain 2: B1 V domain 2 with A95S
TCR Mut RLU/WT RLU: 0.61 ratio

B7: B8.2.4 TCR mutant β96T-E (TCR, V domains shown)
V domain 1: B1 V domain 1
V domain 2: B1 V domain 2 with A95Q, T96E
TCR Mut RLU/WT RLU: 0.06 ratio

B9: B8.2.4 TCR mutant β95Q-L (TCR, V domains shown)
V domain 1: B1 V domain 1
V domain 2: B1 V domain 2 with A95L
TCR Mut RLU/WT RLU: 0.64 ratio

B10: B8.2.4 TCR mutant β95Q-V (TCR, V domains shown)
V domain 1: B1 V domain 1
V domain 2: B1 V domain 2 with A95V
TCR Mut RLU/WT RLU: 0.76 ratio

B12: B8.2.4 TCR mutant β95Q-F (TCR, V domains shown)
V domain 1: B1 V domain 1
V domain 2: B1 V domain 2 with A95F
TCR Mut RLU/WT RLU: 0.34 ratio

B13: B8.2.4 TCR mutant β96T-G (TCR, V domains shown)
V domain 1: B1 V domain 1
V domain 2: B1 V domain 2 with A95Q, T96G
TCR Mut RLU/WT RLU: 0.05 ratio

B14: B8.2.4 TCR mutant β95Q-W (TCR, V domains shown)
V domain 1: B1 V domain 1
V domain 2: B1 V domain 2 with A95W
TCR Mut RLU/WT RLU: 0.88 ratio

B15: B8.2.4 TCR mutant β95Q-M (TCR, V domains shown)
V domain 1: B1 V domain 1
V domain 2: B1 V domain 2 with A95M
TCR Mut RLU/WT RLU: 0.99 ratio

B18: B8.2.4 TCR mutant β95Q-H (TCR, V domains shown)
V domain 1: B1 V domain 1
V domain 2: B1 V domain 2 with A95H
TCR Mut RLU/WT RLU: 0.68 ratio

B19: B8.2.4 TCR mutant β96T-C (TCR, V domains shown)
V domain 1: B1 V domain 1
V domain 2: B1 V domain 2 with A95Q, T96C
TCR Mut RLU/WT RLU: 0.78 ratio

B20: B8.2.4 TCR mutant β96T-A (TCR, V domains shown)
V domain 1: B1 V domain 1
V domain 2: B1 V domain 2 with A95Q, T96A
TCR Mut RLU/WT RLU: 0.77 ratio

B21: B8.2.4 TCR mutant β95Q-K (TCR, V domains shown)
V domain 1: B1 V domain 1
V domain 2: B1 V domain 2 with A95K
TCR Mut RLU/WT RLU: 0.3 ratio

B25: B8.2.4 TCR mutant β95Q-G (TCR, V domains shown)
V domain 1: B1 V domain 1
V domain 2: B1 V domain 2 with A95G
TCR Mut RLU/WT RLU: 1.03 ratio

B26: B8.2.4 TCR mutant β95Q-N (TCR, V domains shown)
V domain 1: B1 V domain 1
V domain 2: B1 V domain 2 with A95N
TCR Mut RLU/WT RLU: 0.6 ratio

B27: B8.2.4 TCR mutant β95Q-Y (TCR, V domains shown)
V domain 1: B1 V domain 1
V domain 2: B1 V domain 2 with A95Y
TCR Mut RLU/WT RLU: 0.92 ratio

B28: B8.2.4 TCR mutant β95Q-C (TCR, V domains shown)
V domain 1: B1 V domain 1
V domain 2: B1 V domain 2 with A95C
TCR Mut RLU/WT RLU: 1.14 ratio

B29: B8.2.4 TCR mutant β95Q-D (TCR, V domains shown)
V domain 1: B1 V domain 1
V domain 2: B1 V domain 2 with A95D
TCR Mut RLU/WT RLU: 0.6 ratio

B31: B8.2.4 TCR mutant β96T-F (TCR, V domains shown)
V domain 1: B1 V domain 1
V domain 2: B1 V domain 2 with A95Q, T96F
TCR Mut RLU/WT RLU: 0.42 ratio

B38: B8.2.4 TCR mutant β95Q-P (TCR, V domains shown)
V domain 1: B1 V domain 1
V domain 2: B1 V domain 2 with A95P
TCR Mut RLU/WT RLU: 0.21 ratio

B41: B8.2.4 TCR mutant β95Q-T (TCR, V domains shown)
V domain 1: B1 V domain 1
V domain 2: B1 V domain 2 with A95T
TCR Mut RLU/WT RLU: 0.59 ratio

B43: B8.2.4 TCR mutant β95Q-E (TCR, V domains shown)
V domain 1: B1 V domain 1
V domain 2: B1 V domain 2 with A95E
TCR Mut RLU/WT RLU: 0.81 ratio

B44: B8.2.4 TCR mutant β95Q-R (TCR, V domains shown)
V domain 1: B1 V domain 1
V domain 2: B1 V domain 2 with A95R
TCR Mut RLU/WT RLU: 0.43 ratio

B45: B8.2.4 TCR mutant β96T-D (TCR, V domains shown)
V domain 1: B1 V domain 1
V domain 2: B1 V domain 2 with A95Q, T96D
TCR Mut RLU/WT RLU: 0.28 ratio

B47: B8.2.4 TCR mutant β95Q-I (TCR, V domains shown)
V domain 1: B1 V domain 1
V domain 2: B1 V domain 2 with A95I
TCR Mut RLU/WT RLU: 0.74 ratio

The next lines start with the values.

TCR Mut RLU/WT RLU: 0.31 ratio
B2: B8.2.4 TCR mutant β97V-E (TCR, V domains shown)
V domain 1: B1 V domain 1
V domain 2: B1 V domain 2 with A95Q, V97E

TCR Mut RLU/WT RLU: 0.64 ratio
B3: B8.2.4 TCR mutant β96T-W (TCR, V domains shown)
V domain 1: B1 V domain 1
V domain 2: B1 V domain 2 with A95Q, T96W

TCR Mut RLU/WT RLU: 0.84 ratio
B4: B8.2.4 TCR mutant β96T-K (TCR, V domains shown)
V domain 1: B1 V domain 1
V domain 2: B1 V domain 2 with A95Q, T96K

TCR Mut RLU/WT RLU: 0.31 ratio
B6: B8.2.4 TCR mutant β97V-F (TCR, V domains shown)
V domain 1: B1 V domain 1
V domain 2: B1 V domain 2 with A95Q, V97F

TCR Mut RLU/WT RLU: 0.26 ratio
B8: B8.2.4 TCR mutant β97V-G (TCR, V domains shown)
V domain 1: B1 V domain 1
V domain 2: B1 V domain 2 with A95Q, V97G

TCR Mut RLU/WT RLU: 0.49 ratio
B11: B8.2.4 TCR mutant β96T-R (TCR, V domains shown)
V domain 1: B1 V domain 1
V domain 2: B1 V domain 2 with A95Q, T96R

TCR Mut RLU/WT RLU: 0.35 ratio
B16: B8.2.4 TCR mutant β96T-M (TCR, V domains shown)
V domain 1: B1 V domain 1
V domain 2: B1 V domain 2 with A95Q, T96M

TCR Mut RLU/WT RLU: 0.48 ratio
B17: B8.2.4 TCR mutant β97V-K (TCR, V domains shown)
V domain 1: B1 V domain 1
V domain 2: B1 V domain 2 with A95Q, V97K

TCR Mut RLU/WT RLU: 0.8 ratio
B22: B8.2.4 TCR mutant β96T-S (TCR, V domains shown)
V domain 1: B1 V domain 1
V domain 2: B1 V domain 2 with A95Q, T96S

TCR Mut RLU/WT RLU: 0.31 ratio
B23: B8.2.4 TCR mutant β96T-L (TCR, V domains shown)
V domain 1: B1 V domain 1
V domain 2: B1 V domain 2 with A95Q, T96L

TCR Mut RLU/WT RLU: 0.21 ratio
B24: B8.2.4 TCR mutant β97V-D (TCR, V domains shown)
V domain 1: B1 V domain 1
V domain 2: B1 V domain 2 with A95Q, V97D

TCR Mut RLU/WT RLU: 0.97 ratio
B30: B8.2.4 TCR mutant β96T-V (TCR, V domains shown)
V domain 1: B1 V domain 1
V domain 2: B1 V domain 2 with A95Q, T96V

TCR Mut RLU/WT RLU: 0.39 ratio
B32: B8.2.4 TCR mutant β96T-P (TCR, V domains shown)
V domain 1: B1 V domain 1
V domain 2: B1 V domain 2 with A95Q, T96P

TCR Mut RLU/WT RLU: 0.44 ratio
B33: B8.2.4 TCR mutant β97V-H (TCR, V domains shown)
V domain 1: B1 V domain 1
V domain 2: B1 V domain 2 with A95Q, V97H

TCR Mut RLU/WT RLU: 0.4 ratio
B34: B8.2.4 TCR mutant β96T-Y (TCR, V domains shown)
V domain 1: B1 V domain 1
V domain 2: B1 V domain 2 with A95Q, T96Y

TCR Mut RLU/WT RLU: 0.82 ratio
B35: B8.2.4 TCR mutant β96T-N (TCR, V domains shown)
V domain 1: B1 V domain 1
V domain 2: B1 V domain 2 with A95Q, T96N

TCR Mut RLU/WT RLU: 0.56 ratio
B36: B8.2.4 TCR mutant β97V-A (TCR, V domains shown)
V domain 1: B1 V domain 1
V domain 2: B1 V domain 2 with A95Q, V97A

TCR Mut RLU/WT RLU: 0.82 ratio
B37: B8.2.4 TCR mutant β96T-H (TCR, V domains shown)
V domain 1: B1 V domain 1
V domain 2: B1 V domain 2 with A95Q, T96H

TCR Mut RLU/WT RLU: 0.61 ratio
B39: B8.2.4 TCR mutant β97V-I (TCR, V domains shown)
V domain 1: B1 V domain 1
V domain 2: B1 V domain 2 with A95Q, V97I

TCR Mut RLU/WT RLU: 0.57 ratio
B40: B8.2.4 TCR mutant β96T-Q (TCR, V domains shown)
V domain 1: B1 V domain 1
V domain 2: B1 V domain 2 with A95Q, T96Q

TCR Mut RLU/WT RLU: 0.37 ratio
B42: B8.2.4 TCR mutant β97V-C (TCR, V domains shown)
V domain 1: B1 V domain 1
V domain 2: B1 V domain 2 with A95Q, V97C

TCR Mut RLU/WT RLU: 0.41 ratio
B46: B8.2.4 TCR mutant β96T-I (TCR, V domains shown)
V domain 1: B1 V domain 1
V domain 2: B1 V domain 2 with A95Q, T96I
